Patent US20220389113A1, “BINDING PROTEINS TO CUB DOMAIN-CONTAINING PROTEIN (CDCP1)” (COMMONWEALTH SCIENTIFIC AND INDUSTRIAL RESEARCH ORGANISATION, priority 2019, published 2022)

Tests used:
clear cell EOC PDX PH250 = details: mouse, in vivo
Method: Mouse experiments were approved by the University of Queensland Animal Ethics Committee. For PET/CT imaging female NOD.Cg-Prkdc^scid Il2rg^tmwil/SzJ mice (6-8 weeks; 4 per group; Jackson Laboratory, Bar Harbor, Me.) were injected intraperitoneally with cells dissociated from a previously described clear cell EOC PDX designated PH250 (Weroha S J, et al., (2014) Clin Cancer Res. 2014; 20(5):1288-97) (0.2 g/mouse of pelleted cell slurry). CDCP1 expression by PDX PH250 was assessed by immunohistochemical and Western blot analysis as described (He Y, et al., (2016) Oncogene. 35(4):468-78.). 10D7 and IgG1K control were labelled with the positron-emitting radionuclide ^89Zr as described (Zeglis B M, et al., (2015) J Vis Exp. (96): 52521)), and yield and purity determined by radio-TLC and -HPLC (Agilent, Mulgrave, Australia). […] PET image acquisition (30 minutes) was followed by CT for anatomical registration and attenuation correction, with images reconstructed and analyzed using the Inveon Research Workspace (Siemens). Ex vivo bio-distribution was assessed after the final imaging time point. Harvested tumour and organs, cleaned of blood, were weighed and radioactivity quantified using a PerkinElmer 2480 Automatic Gamma Counter (Perkin Elmer, Milton, Australia) and presented as % ID/g of tumour or tissue. […]

[1] = tested on: CDCP1-positive TKCC05 cells; assay: Lindmo assay, immune-reactive fraction; format: binding, human; details: 3 h at 4° C.
Method: 10D7 and control IgG1κ were labelled with the positron-emitting radionuclide ^89Zr as described (Zeglis B M and Lewis J S (2015) J Vis Exp 96:52521). Yield and purity of the labelled antibodies were determined by radio-TLC and -HPLC (Agilent, Mulgrave, Australia). To assess the impact of radiolabelling on 10D7 binding, the immune-reactive fraction (IRF) of 10D7-^89Zr was determined by Lindmo assay as previously described (Burvenich I J et al (2016) J Nucl Med. 57(6):974-80). Briefly, serially diluted TKCC05 cells (5×10^6-0.156×10^6 cells) were incubated with various amounts of 10D7-^89Zr alone or in the presence of a saturating amount of unlabelled 10D7 antibody (700 nM). After incubation (3 h at 4° C.) cells were centrifuged and the radioactivity of the cell pellet and supernatant was determined using a Wizard 2480 gamma counter (Perkin Elmer, Milton, Australia) and immunoreactive fraction (IRF) was calculated as previously described (Tolmachev V, Orlova A, Andersson K. (2014) Methods Mol Biol. 1060:309-30; Burvenich I J et al (2016) J Nucl Med. 57(6):974-80).
To evaluate whether the ability of antibody 10D7 to disrupt cellular processes that promote PDAC in vitro can be harnessed to target this cancer in vivo, the inventors first evaluated the capacity of this antibody to detect PDAC xenografts in mice. […]

B1: ^89Zr-DFO-10D7 (conjugate)
VH: EVQLQQFGAELVKPGASVKISCKASGYSFSDFNIEWLKQSHGKSLEWIGDINPNYDSTNYNQKFKGRATLTVDKSSSTAYMEVRSLTSEDTAVYYCARLGYGYAMDYWGQGTSVTVSS
VL: NIVMTQSPQSMSMSVGERVTLSCKASENVGAYVSWFQQKPDQSPKLLILAASNRYTGVPARFIGSGSATDFTLTISSVQAEDLADYHCGQSYTYPYTFGGGTKLEIKRADAAPTVS
B1 was tested, and the “percent injected dose per gram of tissue, tumour” value (clear cell EOC PDX PH250) was 47.7±2.6 % ID/g and the “immune-reactive fraction (IRF)” value [1] was 88.9%.
